We go through 19 sequences from the DeepSol protein solubility set.

This data set is described as follows: soluble on expression in E. coli; label from the status in PepcDB or PDB records.
Consider “MNMYSMPGYFQNMPTIGKELVNPNPENEQEIKAVESDIHESIKKALDAGITSEEKLNERGQLSAMQRINALIDPGTWCPLNSLFNPENNKFGTTNIVNGLGRVDGKWVYIVASDNKKMAGAWVPGQAENLIRCSDAAKMMHLPLIYLLNCSGVEFPNQDKVYPNRRGGGTPFFRNSELNQLGIPVIVGIYGTNPAGGGYHSISPTILIAHQDANMAVGGAGILSGMNPKGYIDDEAAEQIIAAQIENSKLKVPAPGSVPIHYDETGFFREVYQNDLGVIDGIKKYISYLPAYNLEFFRVDTPKAPQLPAEDLYSIIPMNQKRPYDIYEVIARLFDNSEFSEYKKGYGPEMVTGLAKVNGLLVGVIANVQGLLMNYPEYKQNSVGIGGKLYRQGLIKMNEFVTLCARDRIPLIWLQDTTGIDVGDEAEKAELLGLGQSLIYSIENSKLPSLEITIRKASAAAHYVLGGPQGNNTNVFSIGTGACEYYVMPGETAANAMYSRKLVKAKKAGEDLQPIIGKMNDMIQMYTDKSRPKYCTEKGMVDEIVDMTEVRPYIQAFTEAAYQNPQSICPMHQMLTPRSTREFETFGK”, for which the “soluble on expression in E. coli” value is recorded as “soluble”.

For “MVTFKLNDEFMFGTATASTQIEGGDTGNTWYKWCQEGRIKDSSSCITACDHWNRVEEDTELLKNLGVQTHRMSLEWSRIEPSRGKFSDDAMKHYRDEIKLLVENNIKPLVTLHHFSEPIWFHEMGGWKKTGNADIFIEYVKYVVENLGDLVSDWVTFNEPNVYVDFGYVIGIFPPGERSLSEGLKVTAELINTHVKLYRLIHRIRRERKFAGRTMVGTAMHLRIFDGISSTGKMIAKVVDYLFNEMFMEGMTTGHMMFPLSKKGSSHKKGRYADFLGINYYTRNIVEFVFDPSLYFHELVCDKDLTKSDLGWDIYPEGIYKVCKRYYKKYKLPIYITENGISDKNDTKRPSFIASHLAYIAKAIKEGIPIERYYYWTLMDNFEWLEGESTDFGLYDCNFRTQERIPRKSVRLYEQICRRKELTAEMIEDFKKYSGITIETIR”, the “soluble on expression in E. coli” value is reported as “soluble”.

Turning to “MSLKKQRIVVKIGSSSLTNSKGSIDEAKIREHVQAISVLKKAGHEMILITSGAVAAGFSSLGYPSRPVTIKGKQAAAAVGQTLLMQQYMNQFKQYSLTPGQILLTRNDFSKRERYRNAYATIMELLERGVIPIINENDSTSVEELTFGDNDMLSALVSGLIHADQLMILTDINGLYDANPNENPEAKRFDYLPEITPELLGYAGSAGSKVGTGGMKSKLLATQTALSLGVKVFIGTGSGEQKLADILDGRGDGTYIGDKELSSVNNTRQWIQFHSPISGEIIIDAGAEEAMIHNGSSLLPAGVVGVNGSFPKGAVVEVRGPGGVIGKGQTHYSSEEIMEAKGKRSDELDFEKTFEVIHEGHHHHHH”, the “soluble on expression in E. coli” value was “soluble”.

For the sequence “MGSSHHHHHHSSGLVPRGSHMASMDGKQGGMDGSKPAGPRDFPGIRLLSNPLMGDAVSDWSPMHEAAIHGHQLSLRNLISQGWAVNIITADHVSPLHEACLGGHLSCVKILLKHGAQVNGVTADWHTPLFNACVSGSWDCVNLLLQHGASVQPESDLASPIHEAARRGHVECVNSLIAYGGNIDHKISHLGTPLYLACENQQRACVKKLLESGADVNQGKGQDSPLHAVVRTASEELACLLMDFGADTQAKNAEGKRPVELVPPESPLAQLFLEREGASLPKPKP”, the “soluble on expression in E. coli” value is reported as “soluble”.

Turning to “MMVYIMNAFDIKSTKMDVLSISLHTSDLFDLEDVLVKLGKKFQESGVVPFVLDVQEFDYPESLDLAALVSLFSRHGMQILGLKHSNERWAAAAMKYHLLFCLSHSENVKELGQVEVQKTEDGQKARKTVLITSPVRTGQQVYAEDGDLIVTGAVSQGAELIADGNIHIYAPMRGRALAGAKGDTSARIFIHSMQAELVSVAGIYRNFEQDLPNHLHKQPVQILLQDNRLVISAIGSE”, the “soluble on expression in E. coli” value is “not soluble”.

Regarding “MYVECLSSTTPPIDVFDYLSFFVFNKKDNKYLSIQDVEVKRFSSSKTVWGLPKAMSLETFTDPAKGFIVEGEPCEFGAHVKIASSPVPVDENLPFHKFSWSIRDFSVLKQNDCISKTFAMGGKNWTLTVYPKGDSEADNEFCKYLHLADGEVLSPGEMISVRAQLRALDPRGSKHKTVWLQQWIMAATKARGIPQSLSLADLQEAYLDEDTLNVEIECEVVNSRKMF”, the “soluble on expression in E. coli” value is “soluble”.

Consider “MKRFNDFSKMKAFKDAQEHGKNRYKDVGCLDNNRVKLGGAWPHEYIHANYVSTPTNPKRFICTQAPLEKTCADFWFMCLQDRVETIFMLCNYKEKGAKKCHEYLPTEDNKDTMSFKEKGQKVTVKFESSKAIKFRDNSAAKVTKTVLTVEGAGCDKLKVNHYHWIDWPDRGVPTADNAILELLEKARVSKGPIAVHCSAGIGRTGSVVMLEYVMDQLLAGQIIEDTDKIIQKIREQRNNSVQTDHQYLFVHQVMMNFFEKRGLLDEATSAIHKDFTDQYSKCVL”, for which the “soluble on expression in E. coli” value is “not soluble”.

Consider “MGSSHHHHHHSSGLVPRGSHMTEIYTSVLSYRLLEGKAYSDADTRSLDRMMRSIDEFFSANPGYINFHIYRSYRTDSDVIFWYSSRNPDLMILAKERVQASMRPIAVSSFSSISIYDESPYNAMNKKLEDSLRLPPLRYFVAYPMSKTPDWYLLDFDTRKEIMHEHIKMALNHPDEKGIRSYTTYSFGIGDQEFVVLYEIPDIAAWSRVTEKLREARARKWIIKETPILLGRLVDAGDIAGFLL”, for which the “soluble on expression in E. coli” value is on record as “soluble”.

For the sequence “SKEGSVAPKERINIKYIPATGDAQAEVELPLKTLVVGDFKGHAEQTPLEERATVTVDKNNFEAVMRESELKITATVKNKLTDDENAELPVELNFKSLADFAPDAVASQVPELKKLIELREALVALKGPLGNIPAFRERLQSLLNSEESREKLLAELNLL”, the “soluble on expression in E. coli” value is reported as “not soluble”.

In the case of “SSQSISPMRSISENSLVAMDFSGQKSRVIENPTEALSVAVEEGLAWRKKGSLRLGTHGS”, the “soluble on expression in E. coli” value is “soluble”.

“MGSDKIHHHHHHMSLITDLPAIFDQFSEARQKGFLTVMDLKEQNVPLVGTYCTFMPQEIAMAAGAVVVSLCSTSDETIEEAEKDLPRNLCPLIKSSYGFGKTDKCPYFYFSDLVVGETTCDGKKKMYEYMAEFKAVHVMQLPNSASDAASRALWKTEILRLQQVIEARFGTPISEAALREAIVLKNRERRALAHFYRLGQLNPPALSGGDILKVVYGATFRFDKTALIDELHAMAERIHQEWQQGKRLEPRPRILITGCPIGGAAEKVVRAIEENGGWVVGYENCTGAKATERCVAEEGDVYDALTDKYLAIGCSCISPNDQRLQLLSQMVEEYQADGVIDVILQACHTYAVESLAIKRHLRQQHDLPYMAIETDYSTADLGQLSTRVAAFIEML”: the “soluble on expression in E. coli” value is listed as “not soluble”.

“SLAAVQVVGSWPSVQPREAPREAIPERGNGFRLLSARLCALRPDDSSSARTEIHLLFDQLISENYSEGSGVAPEDVSALLVQACRLVPLNQNHLVSKVSQLIHHLLNRLQVIVDEQHLDFLLAYTISAIHQCSSWTHREILQALAALVYCNGSKCQKYLPELLGNTGLLMKLSDLAQSDPEVRRAAVHCMANLCLSVPGQPYLEEPYQNVCFQAFLTILQSPKSSDMDDITFCMLLQNALKGIQSLLNGGRMKLTQTDELGALLAVLKKFMFHGLPGLNIEMPTVLYPTPLPQYDGRTPIK”: the “soluble on expression in E. coli” value is “soluble”.

Consider “MNDFRPNPSLLLETSWEVCNKQGGIYTVLTSRAHEMMKRHDGRIIFIGPLLTEQEDLPTDFENTVPAILEDWHRDAAPSLDLRYVCGSWRTPGSPPVVLVDFEPLHAQKATLYYEMWEHFGIQSDKGYGDYDEASLFGIAAAQTMHSLCEYLCPEDQPAIGIFNEWMLGMGLLYSKRKTPRLKTLFLTHATTTGRSIAGNNKALYAYMPGYNGDQMAAELGVEAKHGIEKAAAHQSDTFATVSELTAKECRQLLERDPMVLPNGFEPNFVPQGEEYERRRAEARKRLLHVAEHLTGKQLPADTLLIATSGRYEYRNKGIDLFIDAASEAGRSGK”, for which the “soluble on expression in E. coli” value is reported as “not soluble”.

As to “MKKNMLRIMATVTIMGGLFVSTNVPNVKAEEYPEMIVFDDVPVNHWAYDDIMDVVYNKVMLGYGNGKFGVGDNVTREQVAAVLYRTLNLKKEGPLKNPYKDISERATFFLDEILVLTKHGIFEGDEKGNFRPAAPVTRAETAQILTKAFTFEVKKNHTFKDVPNNHWAKNAISALQSNHVIVGTGNGKFEPNKVVTREQYATFLNKAVFYFPVKDENYE”, the “soluble on expression in E. coli” value was “not soluble”.

For the sequence “MSEIVVSKFGGTSVADFDAMNRSADIVLSDANVRLVVLSASAGITNLLVALAEGLEPGERFEKLDAIRNIQFAILERLRYPNVIREEIERLLENITVLAEAAALATSPALTDELVSHGELMSTLLFVEILRERDVQAQWFDVRKVMRTNDRFGRAEPDVAALAELAALQLLPRLNEGLVITQGFIGSENKGRTTTLGRGGSDYTAALLAEALHASRVDIWTDVPGIYTTDPRVVSAAKRIDEIAFAEAAEMATFGAKVLHPATLLPAVRSDIPVFVGSSKDPRAGGTLVCNKTENPPLFRALALRRNQTLLTLHSLNMLHSRGFLAEVFGILARHNISVDLITTSEVSVALTLDTTGSTSTGDTLLTQSLLMELSALCRVEVEEGLALVALIGNDLSKACGVGKEVFGVLEPFNIRMICYGASSHNLCFLVPGEDAEQVVQKLHSNLFE”, the “soluble on expression in E. coli” value is on record as “not soluble”.

Consider “MGSDKIHHHHHHMDLKKWQDPLMNSELQQNYNDNLVKLAGSLEKANQDMTHVNQRISNLVIKSGGNESNEVVDARVSSLVPETEFTTLNDRINYAENALITGVGKLSTNVFDLMDKYNDIDTILKRLYGLDSSNIEIFVDDARGDDIAGTGEIDAPFKTINKAVMTLPRVLNSNSVNIWIVPGRYNEDVVIPPIMGGDIYIRSTNFETVDPTSSTGCQVRSISATGSNGYLYIAGLEETNTAGTTKNYFIKATRCGFVRITKCRMAFNTKAIDPFTAVFIDACSADVNGCYFASQNVDVRGYNTARVEVQNIVHGAKSAIGLYPQSADIFNLNSGTWEADTPTKLSGGGVVRT”, for which the “soluble on expression in E. coli” value is listed as “not soluble”.

“MNFDLFADEASRRWTETLAPGAVILRGHAYDDAPALLAALQTVIACAPLRNMITPGGFVMSVAMSNCGQLGWVTDEQGYRYTSHDPLSGEAWPAMPEAFSLLAKQAASEAGFADFEPDACLINRYDVGTRMSLHQDKNERDFHQPIVSVSLGLSATFLFGGMVRSDKAQRVPLTHGDVVVWGGESRLYFHGILPLKSGAVPEGMPDECRFNLTFRKAGLEHHHHHH”: the “soluble on expression in E. coli” value is reported as “soluble”.

On to “MNTGHHKVADTLIDFLHRQFPWVESKKIDFLSYCNELMEKMVSGAYLRWIRSHPASYHRVYKTFMYEESLRLEFVSFEPWLPYFEGKMKKMLEQERPDLIVCTHSFPSRILQQLKRKKVLAIPVVNVYTDFFMNSIWGKRFIDYHFVPHQEAKRELIVKHGIDERRIVVTGIPAAALEHHHHHH”, for which the “soluble on expression in E. coli” value is recorded as “soluble”.

Regarding “MSLVMKASVDDDDSGWELSMPEKMEKSNTNWVDITQDFEEACRELKLGELLHDKLFGLFEAMSAIEMMDPKMDAGMIGNQVNRKVLNFEQAIKDGTIKIKDLTLPELIGIMDTCFCCLITWLEGHSLAQTVFTCLYIHNPDFIEDPAMKAFALGILKICDIAREKVNKAAVFEEEDFQSMTYGFKMANSVTDLRVTGMLKDVEDDMQRRVKSTRSRQGEERDPEVELEHQQCLAVFSRVKFTRVLLTVLIAFTKKETSAVAEAQKLMVQAADLLSAIHNSLHHGIQAQNDTTKGDHPIMMGFEPLVNQRLLPPTFPRYAKIIKREEMVNYFARLIDRIKTVCEVVNLTNLHCILDFFCEFSEQSPCVLSRSLLQTTFLVDNKKVFGTHLMQDMVKDALRSFVSPPVLSPKCYLYNNHQAKDCIDSFVTHCVRPFCSLIQIHGHNRARQRDKLGHILEEFATLQDEAEKVDAALHTMLLKQEPQRQHLACLGTWVLYHNLRIMIQYLLSGFELELYSMHEYYYIYWYLSEFLYAWLMSTLSRADGSQMAEERIMEEQQKGRSSKKTKKKKKVRPLSREITMSQAYQNMCAGMFKTMVAFDMDGKVREGHHHHHH”, the “soluble on expression in E. coli” value is “not soluble”.
